# Data taken from patent US9222119B2, “Detection of degradative enzymes and biomolecules in bodily fluids” (The Regents of the University of California, priority 2008, dated 2015).
# diamino‑ethyl = ethylenediamine linker to Bodipy FL
# Key:
# Assay type in all cases: biochemical
# [1] = target: T1, bovine pancreatic trypsin (Bos taurus, UniProt P00760); assay: Detection of trypsin in 1×PBS buffer using NCDPS, agarose gel electrophoresis; conditions: 1×PBS pH 7.8, 300 μM substrate, 1 h reaction
# T1 construct: from tissue; host or cells: bovine pancreas (lyophilized enzyme)
# T1 sequence (P00760 24-246): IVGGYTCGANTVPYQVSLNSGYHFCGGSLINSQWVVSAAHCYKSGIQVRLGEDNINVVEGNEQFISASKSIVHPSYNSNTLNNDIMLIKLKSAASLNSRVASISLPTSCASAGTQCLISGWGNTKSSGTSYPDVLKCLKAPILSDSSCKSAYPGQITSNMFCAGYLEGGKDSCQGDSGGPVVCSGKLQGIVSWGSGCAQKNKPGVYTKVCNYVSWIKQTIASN
# Method: (§1) In this experiment a 1 mg/ml (650 μM) stock solution of the NCDPS substrate Ac-N-[…]diamino-ethyl-Bodipy FL (SEQ ID NO:29) (MW 1537.4) was prepared by dissolving the peptide in 1× phosphate buffered saline (PBS) at pH 7.8. […] Both proteases were serially diluted in 1 mM HCl in order to obtain the desired concentrations. A solution of 486 μg/ml (316 μM) of the Ac-N-[…]diamino-ethyl-Bodipy FL peptide was prepared in 1×PBS (pH 7.8). Aliquots of 14.4 μl of the […] peptide solution (1×PBS) were mixed with 1 μl aliquots of various concentrations of the proteases or 1 ul of 1 mM HCl for the negative control, and then allowed to react for one hour. 6 μl samples containing 3 μg (300 μM) of the substrate with protease concentrations ranging from 500 nM (lanes 1-2), 100 nM (lanes 3-4), 50 nM (lanes 5-6), 30 nM (lanes 7-8), 20 nM (lanes 9-10) or 0 nM (lanes 11-12) were loaded into the wells of a 4% high resolution agarose gel run in 0.5×TBE. […] Gels were then quantified with a Storm 480 gel scanner using ImageQuant v5.2 (Molecular Dynamics, Sunnyvale, Calif.) (fluorescence mode, high sensitivity, 100 μm pixel size, 1000V photomultiplier tube) with a 450 nm excitation filter and a 520 nm long pass emission filter. […]
# [2] = target: T2, bovine pancreatic α-chymotrypsin (Bos taurus, UniProt P00766); assay: Detection of α-chymotrypsin in 1×PBS buffer using NCDPS, agarose gel electrophoresis; conditions: 1×PBS pH 7.8, 300 μM substrate, 1 h reaction
# T2 construct: from tissue; host or cells: bovine pancreas (lyophilized enzyme)
# Method: as §1
# [3] = target: T1, bovine pancreatic trypsin; assay: Detection of trypsin in human plasma using NCDPS; conditions: un-diluted human plasma, 1 h reaction
# Method: (§2) In this example a 1 mg/ml (650 μM) stock solution of the peptide substrate was prepared from lyophilized Ac-N-[…]diamino-ethyl-Bodipy FL (MW 1537.4) (SEQ ID NO:29) by dissolving the peptide in 1×PBS at pH 7.8. […] Both proteases were serially diluted in 1 mM HCl in order to obtain the desired concentrations. A solution of 486 μg/ml (316 μM) of the Ac-N-[…]diamino-ethyl-Bodipy FL peptide was prepared in un-diluted human plasma. Aliquots of 14.4 μl of the peptide plasma solution were mixed with 1 μl aliquots of various concentrations of the proteases or 1 ul of 1 mM HCl for the negative control and then allowed to react for one hour. Samples of about 6 μl each containing 3 μg (300 μM) of the substrate with protease concentrations that ranged from 500 nM (lanes 1-2), 100 nM (lanes 3-4), 50 nM (lanes 5-6), 30 nM (lanes 7-8), 20 nM (lanes 9-10) or 0 nM (lanes 11-12) were loaded into the wells of a 4% high resolution agarose gel in 0.5×TBE. […] Gels were then quantified with a Storm 480 gel scanner using ImageQuant v5.2 (Molecular Dynamics, Sunnyvale, Calif.) (fluorescence mode, high sensitivity, 100 μm pixel size, 1000V photomultiplier tube) with a 450 nm excitation filter and a 520 nm long pass emission filter. […]
# [4] = target: T2, bovine pancreatic α-chymotrypsin; assay: Detection of α-chymotrypsin in human plasma using NCDPS; conditions: un-diluted human plasma, 1 h reaction
# Method: as §2
# [5] = tested on: human pancreatic α-chymotrypsin; assay: Detection of chymotrypsin activity in whole rat blood or 1×PBS using NCDPS substrate; conditions: 1×PBS or whole rat blood, 1 h incubation, α-chymotrypsin stocks 2, 0.4, 0.08, 0 mg/ml
# Method: In this experiment 7 μl of 1× phosphate buffered saline (PBS) at pH 7.8 or 7 μl of whole rat blood were mixed with the following: 7 μl of 1 mg/ml Acetyl-N-[…]Bodipy FL (SEQ ID NO:26) in 1×PBS pH 7.8; 0.4 μl of 2 M CaCl2; and 0.5 μl of the following concentrations 2 mg/ml, 0.4 mg/ml, 0.08 mg/ml and 0 mg/ml of human pancreatic α-chymotrypsin. The mixtures were incubated for 1 hour and then 6 μl of sample was loaded into the wells of a 4% high resolution agarose gel. The five wells on the left-hand side were loaded with 1×PBS samples and the five wells on the right right-hand side were loaded with the whole rat blood samples. Electrophoresis was performed for 30 minutes at 80 V and then the gel was imaged using a BioDoc-It® System with a Model M-26 transilluminator (UVP, Upland, Calif.). The upper FIG. 26A show the gel before the electric field was applied and the quenching of fluorescent signal from NCDPS substrate by the blood samples can clearly be seen in the five wells on the […] side. This sensitivity-reducing quenching issue would occur for many of the current types of fluorescent enzyme assays utilizing classical fluorogenic substrates. As a result, these latter methods typically require considerable sample preparation, which is time-consuming and makes the measurements less accurate, in order to recover fluorescent signal.
substance,measurement,setting,value
"Ac-N-Asp-Gly-Asp-Ala-Gly-Tyr-Ala-Gly-Leu-Arg-Gly-Ala-Gly-diamino-ethyl-Bodipy FL (Ac-DGDAGYAGLRGAG-{diamino‑ethyl-Bodipy FL}) [SEQ ID NO:29, NCDPS substrate for chymotrypsin and trypsin, net charge −1]",detection level by inspection of gel (FIG. 20),[1],about 30 nM
same,detection level by inspection of gel (FIG. 20),[2],about 20 nM
same,detection level by inspection of gel (FIG. 22),[3],about 20 nM
same,detection level by inspection of gel (FIG. 22),[4],about 20 nM
Acetyl-N-Asp-Gly-Asp-Ala-Gly-Tyr-Ala-Gly-Leu-Arg-Gly-Ala-Gly-Bodipy FL (Ac-DGDAGYAGLRGAG-{Bodipy FL}),cleavage products on gel after electrophoresis (FIG. 26B),[5],appearance of cleavage products in the first three 1×PBS samples and in the blood samples
